Source: the domain aggregation screens of Martell et al. (2025)

Experiment: soluble fraction after stress (log2 fold change); higher = more stays soluble; pooled small domains, quantitative proteomics
Conditions: stress: 75 degC
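Also: 20 min heating vs room temperature control held 20 min.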

In order of falling “soluble fraction (log2)” value:
1. HMVKTIINGEEKDFDAQDFQTFGDFLKKVIPEGQILKSLKINSKDVPIAFIDELKSATVDENITIEMELA  0.682
2. HMVVSDKIAFSSFLKSVEDGRVVEVEITGNDIRGILSDGTVFNTYAPNDPNLVEKLTSKGVNITALPKE  0.522
3. HMVLGDQTFQSASAPKVFFGGDAAYGPKNIITAVAHGHDAAVSIDRFLHGEDVSKRPGPQVNLVS  0.287
4. HMVVEDDTVLQAVKQAIEENPEAVSDYFEGKSKALNFLVGQVMRITRGKADPAKTNQMVVEELKNR  0.237
5. HMVNPIDFYLLFRTELQRLAEHPITVDRLTEVTGLNKLQVLDWLKRAEQDGLVKKLNRPTRYQLN  0.233
6. HMVQIFIPVVHDDHWFLIVFSREEDTFYVLDSLPSLSRISTINGIISTLKEHLQQASVGPQYSVKVLPVK  0.226
7. HMVPDVVGKDYALAQAELEGANLVVAKGSSRYDDTLPAGVVLATDPKVGTVVKPGAKVTVILSK  0.217
8. HMVNIPEIAKKFGKSTSEVFEQIQIGEKHEMEHTNDPKKARKIALDHLSDDMDYYKKLKKLG  0.212
9. HMVQLAEGERYRRIQEANDFINRQQWPGKAAMGRLKDTEKAQYNLWLDYLDALEAVDTSSAPKINWPVPPE  0.2
10. HMVTINTASLEKAIADAKAVVKESYTTDSYNAMKAVLDEAEDLLKEEAQDQDTIDAKTEALNAAIEALVKR  0.166
11. HMVRDPYELLEVPREATPDEIKSAFRKLAARHHPDRNPDDPGAQERFKEINAAYQLLSDPQKRAMFDRFGA  0.159
12. HMVSNRMVYSDFQQKWINNQVESINVNADKMTIEVTTQDEKKYTVYAPSSMIEFLNEQYPKDDIKIEYVAP  0.153
13. HMVTEIDYGAFIKMTEEGNIGEVKIEDNQIVFTDKENKAIYKTGIMPDSDLTQRLYDSGAVFA  0.128
14. HMVTPPMVVVDVQGEVKTPGVYHLPTNSRVNDAIKAAGGPKQSADLSYINQARMVKDGEQIYVEKKL  0.0962
15. HMVTARMPDLFGLDEATAQRMVSNAGLTLKTEYAYSDQAEGYVFDQTPEANAEVRRGGTVTAMIS  0.069
16. HMWSQEPEYRPLYNSMDGFDAGQVVEMLQQSRIDYKVEPNSGALLVRSEDLADARLRLASAGISP  0.0488
17. HMWSGEPFLDELRHADTLLETDPEAALAEYRALADKGSAAAMMALGNAYASGSHVARDEGEAEHWYRRAA  0.0377
18. HMVQVDNELTEFSVQSITRGIDALGEVTIRVTAPDGGVYTGRGADNDIIVSSTKAYLNALNRLLNDK  0.0321
19. HMVSMSFDDYVNDAKEYESEGDKDKAYNSYLEAYKLNKSSEEVLDYLIDNTEDVTLKLNYVYEYLDL  0.00966
20. HMVLSTRERMSNILATLKGGHFVNFSDLFTPEEGRLGVVVTFLAMLELIKESLLDIVQHEVLGPIHVKARV  0.00479
21. HMVTYELTEDEKFIVSLLEKENSQPIGALKDKSALSGKKWDAAMKGLAKHGLTKVVVDGDNKLVVL  -0.0322
22. HMVQQAVNMAKPGKLFTGPSPTSKALRDLDAGAMLYPTGEKQGPFWKVQDELGNEGWVAMGLLQLA  -0.0352
23. HMVNGTPADPYDVLGVESSASPEELRAAWQTLVRQNHPDQLMARGVPLEAVKLAEARLVAINQAWDDLTK  -0.0568
24. HMVNIAVMTVSDTRTEADDKSGSLLVSKIEGDGHVLADRAIITDDVPRIIAKLKEWIESPQVDVVVT  -0.0813
25. HMVSRQINVIPDDLAGLRLDQALAHLFPQHSRSRLKEWLLEDIIIVQGGPKRPKDIVSGGEIVEIKL  -0.165
26. HMVTVSAVNITPKGHTTVGFTDRSVNPPSNYYLRVGESADGWTVKDADFDDEIATLEKDGVAITLKL  -0.228
27. HMVSPLEKSQSFGSFEISREFARTLGLTSARNWENWAASDSRPINIPYSPNVFYKNKGWIDWSDWLGTE  -0.279
28. HMVLRPDDVEDSLWREWVSHRKAKRAAVTEGVLKTFRQEATKASFTLADAMRKSIDRGWTGFEAEWVARET  -0.299
29. HMVSEDELLARIALLPYPQAKILLEERLSHDPANAKVRQLYLELAKKSGDHTEVTRHNSLLY  -0.347
30. HMVPLSMLTEGQIFRGQVLDITSQGIKIQLNPEQILFARLGEQVELNIGQQMAFQVRENKGDQLIIHPMQN  -0.353
31. HMWQPIKLDRGDWQNSLQVGDRVFVRGIPRPVEILSAVDEENNIEVLMGTMRAKIPVYQLDKPAENFIDTT  -0.362
32. HMVSKSDVQRALEKVEPVLRKLGGSTVEKVRVMARQATLVFEMLKSWWKGEIDLPWKTVAAMTVTLLYL  -0.451
33. HMYAGTVTQVKNNKVMLEFDGETVNVGDQFFILNSDGKKVAIVEITAAKNKKALANVLKGKAVVDGTTQAK  -0.476
34. HMVSKIEAPLPGIILSVDVKEGDTVKAGDKLMVMEAMKMENAILAETNGVVKSIKVKIQDSVLQGDILAEI  -0.55
35. HMVRSLADQVYERLRRNIVSGDLAPNARIVELDIAAQMGTSQGPVREALQRLEREGLVQRRAHSATFVTD  -0.554
36. HMVNINEVEVSRDLAHAKVFVTFVGDRTDEINTQALKVLNAAQGFLRSRIASNNHMRTTPRIHF  -0.567
37. HMVRVSELAIEPRLVVEETATGFVGAVVRYANGLIELEDRHGAVRTFPLGPGYLVDGRPVSLVKPT  -0.577
38. HMWNTADDIKEAIWKLIQSEDPKKPYSDLKISQLLLEKEMKISRRTVAKYRKEMGILGTYSRK  -0.603
39. HMVPDGFDQLTEREYQVAMAVGKGLNNKEIASQLGLGERTVKAHLTTTFEKLHVRDRVQLALIVNRL  -0.683
40. HMVTTDPIADMLTRIRNASSQKHKSVDVPASKEKLAIAQILFEEGYIKSFEEIKEENNQGVIRITLKYTEK  -0.733
41. HMWSLLVILQLREGGQRFSQLQRAIPDISQRMLTQTLRKLERDGLVSRKVTPSTPPRVDYAITELGH  -0.841
42. HMVNHVGITVSNLERSIQFYEALTGKKIANQDTIGGKRMAQTQGLADTLIKYANLHLDNLNIDLLEYVE  -0.92
43. HMVQAQGARIREARVQRGLSQAQLGEPRYSGSYISHIENGRRSPGTDVLAFIAARLGLEPGALDS  -0.978
44. HMVMIPDLVGETIEDAKDILEGLGFEVEVRSEFPESDWGRPFARVTSLSPSAGQEVAKGTLVIIRSF  -1.05
45. HMWQVVEVDYGTFMSMTEDGQVGRVEIQEQENLILFTDQEETTVYKTAMVDDPDLTARLHDAGIPFYGQE  -1.06
46. HMVPVQLTPRELQVARLAAHGASSPEIAAELRVSRRTVDNQLGRVYAKLGIAGRAELAAALSRLPVSV  -1.07
47. HMVTVPNYSDPRQYVEWGNANGITINRAVGDTIASMSGRVQDVRDSNGNSVIGKKVKKGSTVTVYIYFLK  -1.08
48. HMVLAEPLSERELDILRLLAAGDSNKEIAAVLYITEGTVKNHVTNILGKLDARDRTQAALRARELGL  -1.21
49. HMVMLIVMNHTASQADIDKVIEVVSGMGFTAAPIPGGERTAIGVLGNKGYVDDSTIRDLPGVQQAIHVSKP  -1.21
50. HMVPVSIYAYNKIKTAILNNELMPGEKLVEASLAETLNMSRTPIREALRQLEQEGFVTYYPQKGSIVSH  -1.25
51. HMVSLNKTEFIAVKKASASELRDKINSLGLDVLKDATISADARTNQIIATGPKYALEQIKMLVVGLDVSS  -1.4
52. HMVRKIRARLVLQLRAEGLSGRAIAGSQGMSRKSVTAVLDAADRAGIGWDEIAERSEGEVYALLFPGRG  -1.46
53. HMVRQKYKSNFITVGDKSLTIHDWAQRLNLSQYALRNRYKEFGKEWVEKAIKTILETGDNTHIYK  -1.46
54. HMVTLPLLKRGHTGLPVKALQTLLVLRGMSVDVDGSFGEKTESAVRTFQTAAKILSDGEVGKDTWKALI  -1.56
55. HMVNPHPVYRSWGLLYVEARDGDSLESIAKEFGFSVKKLAKYNEVPKDYPLEAGDIVYLEKKKK  -1.63
56. HMVSLRQQVYDYLRSQMNQGELRPGSAINLGEMSSRFGISRTPLREALLQLETEGFVTIYPRKGIIVN  -1.63
57. HMVLVSNYGEVVRKARERKGLDHGSLAMKISEKKSIITSVESGNMKPNEKLIKKLENFLNINLM  -1.69
58. HMVLSPAQVRRALMVSGLFTEARVARQLGVPMDLKQILRIILRNTPPQSAMARELESAIDEIESRNAMRD  -1.7
59. HMVMSVGENIAYFRKKLGLTQEMLSERIGVTAQAVSKWENGVTNPDISLLPRISEALGIGIGDLFD  -1.94
60. HMVLTGTIKKYNNERGFGFISTSNFGDVFFHIKDFQKGEQPIPGREVYFEVVKKENKKRAIHVYYSD  -1.95
61. HMVVMKGKVKWFNKNKGYGFIITDDNKEYFVHWKSIVTNSPRELKVLEQDELVTFDLMETDKGIQAINII  -2.19
62. HMWMQKILGNYIAARRKELGMTQANLAEKIHVTDKAVSRWERGVGLPDIENLEALAKALEVSLVSLMQGKT  -2.36
63. HMVVPELNLAQQDVLRALRQRGRATADHLSVDTHRPVSEVMGILLGLEIAEVLYRVEGGWFVPKTAR  -2.39
64. HMWNGIVDAGKARQHLMNLSQLGVGRRAVAAASDVAETVLMDIRSGTKTRIRARTERQILAVTPEMA  -2.42
65. HMVPAMGSLTLIKGGVNLRNAPGGLTIAQLDRGLVLSYTKFVQKDGYTWYLVNSPKGTGYVRSDVVQLGS  -2.58
66. HMVRKIQAKLVLRLHAQGLSGRAIARSQGMSRRSVSDVLDAARAVGVGWDDVTGKTDGEVYALLFPGRG  -2.66
67. HMVNLKQVELREHHPWVGHKIKELDISRHTLIVMIRRGDNAIVPNGDTLIKSGDIVFVFSKR  -2.76
68. HMVSYTLPTLHTGKNWYVDFTAYDPAEQKMKRKKYMLDGISKITERRKRAVDIIATVTARLRSGWNPWA  -2.76
69. HMWGAYHDGQVVKFPKKVTVYVIDGQYKRPLANEFVLKFLNYKTSDIIIDKDGNLNNYKNGAVVEH  -2.79
70. HMVSNFEAEFGRHFAIFFPGSEFTELKLRLLEEGAELIDPIRDTPFERFFFKDPNGYIFEVIDKE  -2.81
71. HMVSLTGEWRPSKDALDILITKGGINPNFIDDAVPEFILYWRDRGDVSNTWDSKFIQHVRRQWQFYTGI  -2.87
72. HMVNAVKFAIEKMPYKYSSLLTLKYVMGYSGKEIAEITGLSETNVRQQLLKGRKLLESMLEE  -2.9
73. HMVQYVDFVKRMIEELPWWHRRMLELKYLDGLTYEEIADELQVPVGTVKGTLHRAKELFQEILKNN  -3.29
74. HMVVYQRVHDEILQALKDNVYPVGTLLPPEPELERIYSVSRTTVRRAIAKLSEEGYVQVRQGYGTMVLKN  -3.48
75. HMYAEVTITIEKGMTSDSVSKLLYKAGIVDDAKEFNNYIIKAGKSTKILIGEFTIQKGASYDDIIKIIA  -3.51
76. HMVTEKPLYRDELMDHDTVWVEPISMDSHLRMELRGWYHVKNRFVENEVGQRFYFDFYDIKWLAFTNGP  -5.45
